Source: publication PMC11063343 (Frontiers in Cellular and Infection Microbiology, 2024)
No end group written: not given here. *: point of attachment. Biotin = O=C1N[C@H]2[C@H](CS[C@H]2CCCCC(=O)*)N1

Biological target: T1, full length SARS-CoV-2 spike protein (SARS-CoV-2, UniProt P0DTC2)
T1 construct: source: bought: ACROBiosystems
Assay: SPR
Conditions: both partners purified

Biotin-MYCVFNRNEDACRYG (cysteine pairing not given here) [cellugyrin Inner loop 1A peptide] was tested. Which Kd did it give?
Its Kd is 4.53 mM.
